For orientation: Kd means the constant that tells how readily two partners part at equilibrium.

Results on 2 molecules are retold here after patent US8466258B2, “Polypeptides, cyclic polypeptides and pharmaceutical comprising thereof for non invasive specific imaging of fibrosis” (INSERM (Institut National de la Santé et de la Recherche …, priority 2008, dated 2013).

One assay has as its target laminin (Mus musculus, UniProt P02468+P02469+P19137). Briefly: SPR: laminin binding to collagelin. (Surface plasmon resonance follows binding to a sensor surface in real time, without labels.)
In the next assay the test system is 9O12.2 IgG. Nature of the assay: SPR: 9O12.2 IgG injected over immobilized biotin-collagelin. The assay is classed as binding. The note with it: 9O12.2 IgG 5 μg/ml, competitor 25 μg/ml.
The subject of assay [1] is type I equine fibrillar collagen (Horm). Briefly: Solid phase assay on collagen-coated microtitration plates. The assay is classed as binding. The settings on record: competitor mixed with collagelin, 50 and 20 μg/mL (3J24.2: 50 μg/mL).

Bridge positions count the residues as written; N and C are the ends. Peptide text beside a SMILES is read from it. * marks the point of attachment. Biotin = O=C1N[C@H]2[C@H](CS[C@H]2CCCCC(=O)*)N1

Method for 9O12.2 IgG: A Biacore 2000 instrument (GE Healthcare Europe GmbH, Orsay, France) (Université Paris 7, Institut Jacques Monod, Paris, France) was used to characterize the binding properties of the synthesized peptides. Biotinylated peptides (˜20 RU) were covalently coupled to the surface of a SA-sensorchip.
Glycine-HCl (10 mM pH 2.5) was injected for 30 s at 20 μL·min-1 to regenerate the sensorchip between each sample. Sensorgrams were analyzed with the BIA evaluation version 3.1 software. Kinetic constants (kon, koff) were deduced from the analysis of association and dissociation rates at four different IgG concentrations ranging from 1.25 to 10 μg·mL^−1. The dissociation constant KD was calculated from KD=koff/kon. […] In some experiments, the peptide was reduced by DTT on the sensor chip before injection of the IgG. Competition experiments were performed by mixing the IgG with recombinant soluble GPVI (25 μg·mL^−1). Collagen binding to the peptide was analysed by injecting type I equine collagen (Collagen Horm, Nycomed. Germany) (200 μg·mL^−1 in EBS-EP buffer) onto the peptide-coated sensorchip.

As to `CSCC[C@@H]1NC(=O)[C@H](C(C)C)NC(=O)[C@H](CCCNC(=N)N)NC(=O)[C@@H]2CCCN2C(=O)CNC(=O)[C@@H](NC(=O)CNC(=O)[C@H](CO)NC(=O)CNC(=O)[C@H](CO)NC(=O)CCCC[C@@H]2SC[C@@H]3NC(=O)N[C@@H]32)CSSC[C@@H](C(N)=O)NC(=O)[C@@H]2CCCN2C(=O)CNC(=O)[C@H](CCC(=O)O)NC(=O)[C@H](CC(=O)O)NC(=O)[C@H](CC(=O)O)NC(=O)CNC(=O)[C@H](CC(C)C)NC(=O)[C@H](Cc2c[nH]cn2)NC(=O)[C@H](CC(C)C)NC(=O)CNC(=O)[C@H](Cc2c[nH]cn2)NC1=O` [collagelin] (Biotin-SGSGCGPRVMHGLHLGDDEGPC-NH2; disulfide 5-22), at laminin, binding was characterised by a dissociation constant (Kd) of 18.3 µM.

B1: recombinant soluble GPVI: soluble recombinant GPVI-Fc fusion protein (protein)
chain: QSGPLPKPSLQALPSSLVPLEKPVTLRCQGPPGVDLYRLEKLSSSRYQDQAVLFIPAMKRSLAGRYRCSYQNGSLWSLPSDQLELVATGVFAKPSLSAQPGPAVSSGGDVTLQCQTRYGFDQFALYKEGDPAPYKNPERWYRASFPIITVTAAHSGTYRCYSFSSRDPYLWSAPSDPLELVVTGTSVTPSRLPTEPPSPVAEFSEATAELTVSFTNEVFTTETSRSITASPKESDSPAGPARQYYTKGN
modifications: left off: a dimerising Fc or GST
notes: soluble recombinant GPVI-Fc fusion protein
As to B1, in the assay with 9O12.2 IgG, the “inhibition of 9O12.2 IgG binding to immobilized biotin-collagelin by competitor” value is “completely inhibited”. Moreover, in assay [1], the “inhibition of biotin-collagelin binding to collagen by competitor” value is given as “completely inhibited”.
